This note sets out measurements from patent publication US20180215801A1.

For the experiment, the target named is Activin B (UniProt P09529). The experiment can be described thus: SPR (Biacore 2000), Fc fusion captured on anti-human Fc chip, ligand injected, 1:1 Langmuir fit. On the technique in general: SPR reads the build-up and loss of mass on a sensor chip optically.
Activin B, sequence (P09529 293-407 limits assumed): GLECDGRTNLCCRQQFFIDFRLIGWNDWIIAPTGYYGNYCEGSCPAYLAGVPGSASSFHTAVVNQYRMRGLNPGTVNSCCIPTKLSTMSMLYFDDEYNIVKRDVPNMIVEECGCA

The substance “BMPRII-Fc (BMPRII (1-120) fused to hIgG1-Fc) (from UniProt Q13873 27-120) (Fc fusion)” came in with a Kd of 0.8 nM, a koff of 0.00042 s⁻¹ and a kon of 510000 M⁻¹ s⁻¹.

For orientation: Kd means the concentration at which binding is half-saturated. Lower therefore signals higher affinity. One may read the koff as a measure of how fast the partners let go of each other. Read a low koff as slow dissociation. One may read the kon as the rate constant with which the complex forms.
